Measured values from the Human Domainome abundance scans (Beltran et al. 2025).
± gives the uncertainty stated by the source.

B1: Receptor-interacting serine/threonine-protein kinase 2, residues 438 to 518; numbered along this chain, O43353 (parent)
chain: QWIQSKREDIVNQMTEACLNQSLDALLSRDLIMKEDYELVSTKPTRTSKVRQLLDTTDIQGEEFAKVIVQKLKDNKQMGLQ

Variants of: B1
Test: abundance fitness (aPCA) (normalised: wild type 0, dead -1); higher = more abundant; growth selection in yeast, the domain comes from the species named
Conditions: Homo sapiens

| Variant | abundance fitness |
| --- | --- |
| QWIQSKREDIVNQMTEACLNQSLDALLSRDLIMKEDYELVSTKPTRTSKVRQLLDTTDIQGEEFAKVIVMKLKDNKQMGLQ [Q70M] | -0.436 ± 0.15 |
| QWIQSKREDIVNQMTEACLNQSLDALLSRDLIMKEDYELVSTKPTRTSKVRQLLDTTDIQGEEFAKVIVNKLKDNKQMGLQ [Q70N] | -0.81 ± 0.42 |
| QWIQSKREDIVNQMTEACLNQSLDALLSRDLIMKEDYELVSTKPTRTSKVRQLLDTTDIQGEEFAKVIVPKLKDNKQMGLQ [Q70P] | -0.567 ± 0.079 |
| QWIQSKREDIVNQMTEACLNQSLDALLSRDLIMKEDYELVSTKPTRTSKVRQLLDTTDIQGEEFAKVIVSKLKDNKQMGLQ [Q70S] | -0.174 ± 0.066 |
| QWIQSKREDIVNQMTEACLNQSLDALLSRDLIMKEDYELVSTKPTRTSKVRQLLDTTDIQGEEFAKVIVVKLKDNKQMGLQ [Q70V] | -0.714 ± 0.094 |
| QWIQSKREDIVNQMTEACLNQSLDALLSRDLIMKEDYELVSTKPTRTSKVRQLLDTTDIQGEEFAKVIVWKLKDNKQMGLQ [Q70W] | -0.645 ± 0.16 |
| QWIQSKREDIVNQMTEACLNQSLDALLSRDLIMKEDYELVSTKPTRTSKVRQLLDTTDIQGEEFAKVIVYKLKDNKQMGLQ [Q70Y] | -0.776 ± 0.39 |
| QWIQSKREDIVNQMTEACLNQSLDALLSRDLIMKEDYELVSTKPTRTSKVRQLLDTTDIQGEEFAKVIVQALKDNKQMGLQ [K71A] | 0.022 ± 0.074 |
| QWIQSKREDIVNQMTEACLNQSLDALLSRDLIMKEDYELVSTKPTRTSKVRQLLDTTDIQGEEFAKVIVQCLKDNKQMGLQ [K71C] | -0.02 ± 0.11 |
| QWIQSKREDIVNQMTEACLNQSLDALLSRDLIMKEDYELVSTKPTRTSKVRQLLDTTDIQGEEFAKVIVQDLKDNKQMGLQ [K71D] | -0.381 ± 0.12 |
| QWIQSKREDIVNQMTEACLNQSLDALLSRDLIMKEDYELVSTKPTRTSKVRQLLDTTDIQGEEFAKVIVQELKDNKQMGLQ [K71E] | -0.21 ± 0.11 |
| QWIQSKREDIVNQMTEACLNQSLDALLSRDLIMKEDYELVSTKPTRTSKVRQLLDTTDIQGEEFAKVIVQFLKDNKQMGLQ [K71F] | -0.249 ± 0.15 |
| QWIQSKREDIVNQMTEACLNQSLDALLSRDLIMKEDYELVSTKPTRTSKVRQLLDTTDIQGEEFAKVIVQGLKDNKQMGLQ [K71G] | -0.281 ± 0.073 |
| QWIQSKREDIVNQMTEACLNQSLDALLSRDLIMKEDYELVSTKPTRTSKVRQLLDTTDIQGEEFAKVIVQHLKDNKQMGLQ [K71H] | 0.078 ± 0.11 |
| QWIQSKREDIVNQMTEACLNQSLDALLSRDLIMKEDYELVSTKPTRTSKVRQLLDTTDIQGEEFAKVIVQILKDNKQMGLQ [K71I] | -0.122 ± 0.11 |
| QWIQSKREDIVNQMTEACLNQSLDALLSRDLIMKEDYELVSTKPTRTSKVRQLLDTTDIQGEEFAKVIVQLLKDNKQMGLQ [K71L] | -0.289 ± 0.061 |
| QWIQSKREDIVNQMTEACLNQSLDALLSRDLIMKEDYELVSTKPTRTSKVRQLLDTTDIQGEEFAKVIVQMLKDNKQMGLQ [K71M] | -0.113 ± 0.11 |

| Variant | abundance fitness |
| --- | --- |
| QWIQSKREDIVNQMTEACLNQSLDALLSRDLIMKEDYELVSTKPTRTSKVRQLLDTTDIQGEEFAKVIVQNLKDNKQMGLQ [K71N] | -0.157 ± 0.25 |
| QWIQSKREDIVNQMTEACLNQSLDALLSRDLIMKEDYELVSTKPTRTSKVRQLLDTTDIQGEEFAKVIVQPLKDNKQMGLQ [K71P] | -0.555 ± 0.087 |
| QWIQSKREDIVNQMTEACLNQSLDALLSRDLIMKEDYELVSTKPTRTSKVRQLLDTTDIQGEEFAKVIVQQLKDNKQMGLQ [K71Q] | -0.086 ± 0.1 |
| QWIQSKREDIVNQMTEACLNQSLDALLSRDLIMKEDYELVSTKPTRTSKVRQLLDTTDIQGEEFAKVIVQRLKDNKQMGLQ [K71R] | -0.612 ± 0.05 |
| QWIQSKREDIVNQMTEACLNQSLDALLSRDLIMKEDYELVSTKPTRTSKVRQLLDTTDIQGEEFAKVIVQSLKDNKQMGLQ [K71S] | 0.028 ± 0.054 |
| QWIQSKREDIVNQMTEACLNQSLDALLSRDLIMKEDYELVSTKPTRTSKVRQLLDTTDIQGEEFAKVIVQVLKDNKQMGLQ [K71V] | 0.151 ± 0.066 |
| QWIQSKREDIVNQMTEACLNQSLDALLSRDLIMKEDYELVSTKPTRTSKVRQLLDTTDIQGEEFAKVIVQWLKDNKQMGLQ [K71W] | -1.09 ± 0.34 |
| QWIQSKREDIVNQMTEACLNQSLDALLSRDLIMKEDYELVSTKPTRTSKVRQLLDTTDIQGEEFAKVIVQYLKDNKQMGLQ [K71Y] | -0.204 ± 0.14 |
| QWIQSKREDIVNQMTEACLNQSLDALLSRDLIMKEDYELVSTKPTRTSKVRQLLDTTDIQGEEFAKVIVQKAKDNKQMGLQ [L72A] | -0.865 ± 0.14 |
| QWIQSKREDIVNQMTEACLNQSLDALLSRDLIMKEDYELVSTKPTRTSKVRQLLDTTDIQGEEFAKVIVQKCKDNKQMGLQ [L72C] | -0.713 ± 0.34 |
| QWIQSKREDIVNQMTEACLNQSLDALLSRDLIMKEDYELVSTKPTRTSKVRQLLDTTDIQGEEFAKVIVQKEKDNKQMGLQ [L72E] | -0.283 ± 0.12 |
| QWIQSKREDIVNQMTEACLNQSLDALLSRDLIMKEDYELVSTKPTRTSKVRQLLDTTDIQGEEFAKVIVQKFKDNKQMGLQ [L72F] | -0.072 ± 0.14 |
| QWIQSKREDIVNQMTEACLNQSLDALLSRDLIMKEDYELVSTKPTRTSKVRQLLDTTDIQGEEFAKVIVQKGKDNKQMGLQ [L72G] | -0.528 ± 0.07 |
| QWIQSKREDIVNQMTEACLNQSLDALLSRDLIMKEDYELVSTKPTRTSKVRQLLDTTDIQGEEFAKVIVQKHKDNKQMGLQ [L72H] | -0.741 ± 0.2 |
| QWIQSKREDIVNQMTEACLNQSLDALLSRDLIMKEDYELVSTKPTRTSKVRQLLDTTDIQGEEFAKVIVQKMKDNKQMGLQ [L72M] | 0.121 ± 0.14 |
| QWIQSKREDIVNQMTEACLNQSLDALLSRDLIMKEDYELVSTKPTRTSKVRQLLDTTDIQGEEFAKVIVQKNKDNKQMGLQ [L72N] | -0.043 ± 0.33 |
| QWIQSKREDIVNQMTEACLNQSLDALLSRDLIMKEDYELVSTKPTRTSKVRQLLDTTDIQGEEFAKVIVQKPKDNKQMGLQ [L72P] | -0.54 ± 0.077 |
